In patent US20240115500A1, “POLYMERIC MICELLE COMPLEXES OF MRNA OR ZWITTERIONIC AGENTS, AND FORMULATIONS AND USES THEREOF” (Aravasc Inc., priority 2020, published 2024):

B1: interferon gamma: interferon protein tested for complexation with PBC (protein, UniProt P01579 24-161, looked up)
Interferon gamma: QDPYVKEAENLKKYFNAGHSDVADNGTLFLGILKNWKEESDRKIMQSQIVSFYFKLFKNFKDDQSIQKSVETIKEDMNVKFFNSNKKKRDDFEKLTNYSVTDLNVQRKAIHELIQVMAELSPAAKTGKRKRSQMLFRG

Test: Agarose gel electrophoresis of protein + PBC formulations at defined w/w ratios (Example 2)
[1] = polymer:protein ratio 15:1, FIG. 2A-2D

Procedure: Unless otherwise indicated, the complexation was conducted at room temperature by incubating the PBC with the protein for 10-20 minutes on a microcentrifuge. A formulation of PBC alone was prepared along with the protein and PBC complexes.
Formulation were prepared as described above and analyzed by agarose gel electrophoresis. A 2% agarose gel was prepared and 20 μl of each formulation was loaded at the center of the gel. The gel was run for 30 minutes at 75V.

Molecule	complexation with the polymer (agarose gel) [1]	complexation with the polymer (agarose gel) (polymer:protein ratio 30:1, FIG. 2A/2B)	complexation with the polymer (agarose gel) (polymer:protein ratio 18:1, FIG. 2D)
Semaglutide	significantly complex	significantly complex	
interferon alpha			significantly complex
B1	significantly complex		
